For three molecules, EC50 and Kd results are on record in US20220281980A1.

“And” between values parts separate entries of the source, which are not always exact repeats. Equal entries are not always repeated.

In assay [1] the target is human MICA/B endogenously expressed on A2058 cells (MICA alleles *008/*018) (human) (UniProt Q29983). In words: flow cytometry, tumor cells with endogenous MICA/B. Background: A flow cytometer gives signals particle by particle.
Assay [2] deals with overexpressed cyno MICA/B (CHO clones #4 and #6). The assay is described as follows: Scatchard analysis, 125I-MICA.36 on transduced CHO cells.
The target in assay [3] is overexpressed human MICA*008 and MICB*005 on CHO cells. The assay is described as above.

B1: 19G6 (antibody, V domains shown)
VH: QVQLVESGGGVVQPGRSLRLSCAASGFTFSNYAMHWVRQAPGEGLEWVALIWYDGSNKFYGDSVKGRFTISRDNSKNTLYLQMNSLSAEDTAVYYCAREGSGHYWGQGTLVTVSS
VL: AIQLTQSPSSLSASVGDRVTITCRASQGISSALAWYQQKPGKVPKSLIYDASSLESGVPSRFSGSGSGTDFTLTISSLQPEDFATYYCQQFNSYPITFGQGTRLEIK
The EC50 is the concentration that produces a half-maximal response. Read a low EC50 as greater potency. As to B1, the EC50 in assay [1] was found to be 5.39 nM.

B2: MICA.36 (antibody, V domains shown)
VH: B1 VH
VL: B1 VL
What is called Kd is the equilibrium constant for the complex coming apart. Take B2: the Kd in assay [2] lay within 5 to 11 nM; in assay [3], 1 to 2 nM.

B3: 16A5 (antibody, V domains shown)
VH: QVQLVESGGDVVQPGRSLRLSCAASGFTFSNYNIHWVRQAPGKGLEWVAVIRYDGINKYYADSVKGRFIISRDNSKNTLYLQMNSLRAEDTAVYYCASGPPDAFNIWGQGTMVTVSS
VL: B1 VL
With B3, the EC50 in assay [1] was 7.68 nM and 10.9 nM.
